Experimental data published in the DeepSol protein solubility set.

test: soluble on expression in E. coli; label from the status in PepcDB or PDB records

Soluble on expression in E. coli, not soluble:
MSKTAAITIDTPGADDFEPHRRHLYGLAYRMLGSWSEAEDIVQETWLRWREIDPATLDNARAFLSRIATRLCLDVLKSARVRRQVYVGPWLPEPLPDAQAYAGAAPGEIAHDVSVALMLALERLSASERAAFLLHDVFDVPFAEIAGTLGRTEAGCRQLAARARNRVRESRPRFAVEESEGIRLARAFIDAAQHGDVDVLRQLLADDAVLHSDGGGKKLAFMRPILGRANIVRAFAGLARKGQSDLSSVRIVQLNGMPAIYGIERDGLPRTISLGVCGGRIVRVYIMRNPDKLAHLARFTG
MNELREKDESYRSFLLLSAISSEEPLSQREIARQVGIALGLVNSYLKHLVDKGFVRIKSFPRNRYAYLLTPRGLAEKSRLAYEHLSSFTTLFRVARQDYLALFRALKTQGVGRVAFCGVDEVAEIAYLSLREVGLELALVMDQATDGREFFGKPVVSIPHGLLAGNHHIVITTFKRREALREELLQRGVASELLHQAGEPAGETQSIREEHP
QLTPFQQEVSRGLKKSVCHKENMLIHAVTGAGKTEMIYETLASILNQGGAVALASPRIDVCIELYKRLSRDFSCPISLLYGESEAYERSPLVIATTHQLLKFYRAFDLLIIDEVDAFPFVDNKMLYYAVDHCLKSDGVKVFLTATS
MGSDKIHHHHHHAKDKDAYRQYGINCIENGSYDDAVDAFQKALDQSVGSVGAEELDICYYKAKAQYLSGDVDGAIDTYTAIIDYNKDSDAYYLRGCIYFAKNDSDKGLKDFKTALSENNDNYELYLGVYETLSKYGMNDQGKEYLDNALKLKAKTADDYMQRGRIYTMLGDYDSAIKSLQKAIDEKLVKANYYMGEVYQKKGDNDSSQKYFKKYLDSGEADSYELMNMGQAQMDNGNYDTAITYFQNALELESVPNKQQITKAMIIAYEYSGDFATAKSKMEEYMKDYPDDEDAAREYQFLETR
SSMIMYRKDLMEKAGLTMPDAPTWDFVKEAAQKMTDKDAEVYGICLRGKAGWGENMAFLTAMANSYGARWFDENWQPQFDGEAWKATLTDYLDMMTNYGPPGASNNGFNENLALFQQGKCGMWIDATVAASFVTNPEESTVADKVGFALAPDTGKGKRANWLWAWNLAIPAGSQKVDAAKQFIAWATSKDYAELVASKEGWANVPPGTRISLYENP
MKYMVVSSPIQEVLRLHKYIEISTTTITVKITNKMSSPVIGITFGNTSSSIAYINPKNDVDVIANPDGERAIPSALSYVGEDEYHGGQALQQLIRNPKNTIINFRDFIGLPFDKCDVSKCANGAPAVEVDGKVGFVISRGEGKEEKLTVDEVVSRHLNRLKLAAEDYIGSAVKEAVLTVPTNFSEEQKTALKASAAKIGLQIVQFINEPSAALLAHAEQFPFEKDVNVVVADFGGIRSDAAAIAVRNGIFTILATAHDLSLGGDNLDTELVEYFASEFQKKYQANPRKNARSLAKLKANSSITKKTLSNATSATISIDSLADGFDYHASINRMRYELVANKVFAQFSSFVDSVIAKAELDPLDIDAVLLTGGVSFTPKLTTNLEYTLPESVEILGPQNKNASNNPNELAASGAALQARLISDYDADELAEALQPVIVNTPHLKKPIGLIGAKGEFHPVLLAETSFPVQKKLTLKQAKGDFLIGVYEGDHHIEEKTLEPIPKEENAEEDDESEWSDDEPEVVREKLYTLGTKLMELGIK
GPGSMRPNVMLTIPKNTLQVFDMGLDFRSYLSRVDVNGLPVLGNVVSYEASKLTEVFTPTVGLLVTILHMLAHCTSSCSAVAWLKAYDAIQKMYIENSEEENTEAVRYAVEARAAIKDYLTGDAVPGTNLLCEKLLTLLDQQSGIHGSQAPSQRKVPREPKGAFCNLHLSDQKCYQDFACNQLHLQEVKTVRHRKIFYMRLIEVLKAEKRSRQQIRHRIKDSVFFARYGNKVTVQCQGKWIPFFKTVYTDGRLEQALRTQHFACGDSACADENCLGIHPQDRRVTTSSKLMDLNNPDVVLQQIEEEAERHLSMEGAFNDHEAEHISAAASSSSMPSPTSEMWRNTVREYVRQTGIPQVEADESLLRTLQDANVLATPTASTESLTPLLDELDMRTFSSSSPVREHPNAEIG
MGSDKIHHHHHHMEGKKTTQEEYQKCVNAVVDYINLHLGEEIDLKSLARISHFSPFYFHRIMKAFLGEPIGTFIVRTRTEAAARLLRYSSTSISDIAYRIGYASPSSFSKIFKQMYGISPTEYRNNKNYVIMKPAIIKPDLELKKEIRELPQRNVIYIRLFGDYKLNDYAGTWMHLIQFVKEQNLPMGDPSPLCIYHDDPKVTPTDKLRTDVCMLLPSNARPKGNVGFKQLPAGRYATFLYKGSYDQLQAVYDTIYGKYLPEMECTLSDEPSAERYLNDPSCTPPEELLTEIYIPIR
MVTQNKKILIITGSFGNGHMQVTQSIVNQLNEMNLNHLSVIQHDLFMEAHPIMTSICKKWYINSFKYFRNTYKRFYYSRPNELDKCFYKYYGLNKLINLLIKEKPDLILLTFPTPVMSVLTEQFNINIPIATVMTDYRMHKNWITPYSQRYYVATKDTKDDFIEAGVPASYIKVTGIPIADKFELEHHHHHH
QLTAAQELMIQQLVAAQLQCNKRSFSDQPKVTPWPLGADPQSRDARQQRFAHFTELAIISVQEIVDFAKQVPGFLQLGREDQIALLKASTIEIMLLETARRYNHETECITFLKDFTYSKDDFHRAGLQVEFINPIFEFSRAMRRLGLDDAEYALLIAINIFSADRPNVQEPGRVEALQQPYVEALLSYTRIKRPQDQLRFPRMLMKLVSLRTLSSVHSEQVFALRLQDKKLPPLLSEIWDVHE
MGSDKIHHHHHHMRLDHLRLQNFRCYEDAHFDFQPGFNLVVGVNGSGKTSLLLGVAECLIPYGNAMGQGQEILSKEDVRFVIDRHEGRSRFERKFPVFIRADGDIFDLPNWRAVRLLEPWEGGVDPSSLSHLSAVLARNNAGEQIDFPVLAFYRANRRWSSARISAEFAAQQRTSRFDGYANWFDAVADLRDFESWLIARTLERLQDRLDSTPTVEREDELEWVNRAIRLAIPDAHDLRYDLRLQSLLVDMGEGNAVPFHELSDGQRSLIALIADIARRMCVLNPHIGKDVLANTGGIVIIDELDIHLHPAWQRNIAPTLKKAFPKVQFIATSHSPQVIGSLQPGEVILLKNGDSSHPRATYGLDSSTILEEVMGVPQREPEIEVLLDELFSTLENNELEKARLQLDALKKKAPDLPEFAGAEALLKRKELIGR
MDLFSQFFQENQKKFLSFAYSYTRNKAAAEDILMEAMVSLWENREKWEKDSNLHALLLTIIKNKSLNYLEHEQVRMKAEEAINTHKQRELDLRISTLEACEPATIFDTEIQRIVYKTLEQLPEQSRHIFILSRYHNTPNKKIAEQLGISIKSVEFHITKTLKLLRLELKDYLISLLF

Soluble on expression in E. coli, soluble:
KTISLYKDSIPKEKTEGTDAILISDNQLINQLQTAAKTSSSQNKANTAAITFKQSNKSETDQSTTSQVIGYTTTASLKADKKNIFDVKKLNNEKSERKIIVGATVETLNQANTLQANEAIIKPAPGKYQSTDSHKVMITQGPNIVGIHANEKEDKETQKFINW
MSLEALFNPKSIAVIGASSKPGKIGYAIMKNLIEYGYEGKIYPVNIKGGEMEISGRKFKVYKSILEVPDEVDMAVIVVPAKSVPEVVEECGKKGVKVAPIISSGFGELGEEGKKVEQQLVETARKYGMRILGPNIFGVVYTPAKLNATFGPTDVLPGPLALISQSGALGIALMGWTILEKIGLSAVVSVGNKADIDDADLLEFFKDDENTKAILIYMEGVKDGRRFMEVAKEVSKKKPIIVIKAGRSERGAKAAASHTGSLAGSDTIYSAAFKQTGVLRALTIGEAFDWARALSNLPEPQGENVVIITNGGGIGVMATDAAEEEGLHLYDDLEQLKIFANHMPPFGSYKNPVDLTGMADAKSYEGAIRDALAHPDMHSIIVLYCQTAVLDPRELADVIIREYNESGRKKPLVVAIVGGIEAKQAIDVLNENGIPAYPEPERAVKALSALYKWSKWKAKHK
MSLGEKTKLEQIKDNGKLVVGTSAEFPPFEFHKVVDGKDSIKGFDIMLAEEFAKELGVKVEIKDMSFDGLIGALNADQVDIVLAGMSPTPEREKSVDFSELYYLSRNAVIVKDADIDKVKTEDDLKKLRVGVQAGSIQEEYVVNTLKMTTTKSLKAIPDLITELKNGNIDAVVTNEAVSLINVKKYDGIKMANTEVGKDVTEGMAAAIKKSDNNKDFIELLNKKIKELQDGKKIEEFLNEASTEAASEGHHHHHH
MDPFGILYTDLYQLTMGQVYFRMGLHEKEALFEAFYRRNPDYGAHQAGYTVFAGLDPLLSWMEEARFGEEEIAALRNLKSRSGKPLFAEDYLRYLKAMGGFSGLTLRALPEGRVAHPQVPLVSVEGPLLQAQLLETALLNRLNYETLIATKASRVREAAGEAVVLEFGLRRAPAKGGESATRASLIGGANRSSAVSLSHLLGLPASGTHAHSLVQAFMALGYSEEDAFRAFAEVFPDDAILLLDTVDTLHSGLPHAIRVFEELRRKGHRPVGVRIDSGDLAHLAIQVARELDRAGFPEVLIVLSGDLDELVIWQIKSQILEEAPRYGVDPDRLLKRLVYGVGTRMVVSWGAPALGGVYKLVAVRENGTWAPAMKVSNSLEKVLNPGHKRVYRVYDERGLATADLLALAEEEVREDAPLTLRHPTDPTKRRTLRPGSFRLEPLLEEVYRGRRLFPPLPLEELRKRRDRDVALLDPGVRRLVNPHVYHVSLTERLFALKEELVRRLEG
EPEQVIRKYTEELKVAPEEDCIICMEKLAVASGYSDMTDSKALGPMVVGRLTKCSHAFHLLCLLAMYCNGNKDGSLQCPSCKTIYGEKTGTQPWGKMEVFR
MSVIIVGGGMAGATLALAISQFSHGTLPVHLIEAKAPEADGHPGFDARAIALAAGTCQQLARIGVWLAISDCATAINTVHVSDRGHAGFVTLDAQDYSLAALGHVAELHDIGLRLFALLRKAPGVTLHCPERVASVSRTQQQVNVTLENGNVIAGSVLVAANGTHSALASACGVDWHQEPYEQLAVIANVATAIPHQGRAFERFTPNGPLAMLPMSHGRCSLVWCHPLDQRDEVLSWSDAQFCHALQAAFGWRLGRITQAGKRSAYPLALTTAAKVFTHRTVVVGNAAQTLHPIAGQGFNLGLRDVMSLAETLVAAQDAGEDIGAWHVLSRYQQRRQVDRDTTIGVTNGLVHLFANRWAPLVIGRNIGLMAMELLPPARDALAQRTLGWVARLEHHHHHH
PVPATPILQLEECCTHNNSATLSWKQPPLSTVPADGYILELDDGNGGQFREVYVGKETMCTVDGLHFNSTYNARVKAFNKTGVSPYSKTLVLQTSEG
MSAPAAAPKHPGKVFLDPSEVADHLAEYRIVDCRYSLKIKDHGSIQYAKEHVKSAIRADVDTNLSKLVPTSTARHPLPPCAEFIDWCMANGMAGELPVLCYDDECGAMGGCRLWWMLNSLGADAYVINGGFQACKAAGLEMESGEPSSLPRPATHWPFKTAFQHHYLVDEIPPQAIITDARSADRFASTVRPYAADKMPGHIEGARNLPYTSHLVTRGDGKVLRSEEEIRHNIMTVVQGAGDAADLSSFVFSCGSGVTACINIALVHHLGLGHPYLYCGSWSEYSGLFRPPIMRSIIDDYGMCMQMQTPSLGDNPKANLDTMTLKVDGAPCERPDAEVQSAATHLHAGEAATVYFKSGRVVTIEVPVVPNLEA
SSGGKSAQGPEEGGVCITEALITKRNLTFPEDGELSEKMFHTLDELQTVRLDREGITTIRNLEGLQNLHSLYLQGNKIQQIENLACIPSLRFLSLAGNQIRQVENLLDLPCLQFLDLSENLIETLKLDEFPQSLLILNLSGNSCTNQDGYRELVTEALPLLLDLDGQPVVERWISDEEDEASSDEEFPELSGPFCSERGFLKELEQELSRHREHRQQTALTEHLLRMEMQPTLTDLPLLPGVPMAGDSSPSATPAQGEETVPEAVSSPQASSPTKKPCSLIPRGHQSSFWGRKGARAATAPKASVAEAPSTTKTTAKRSKK
